Source: paper PMC4188090, “Crystallization and preliminary X-ray diffraction analyses of the redox-controlled complex of terminal oxygenase and ferredoxin components in the Rieske nonhaem iron oxygenase carbazole 1,9a-dioxygenase” (Acta Crystallographica. Section F, Structural Biology …, 2014)

B1: terminal oxygenase (Oxy) component of carbazole 1,9a-dioxygenase (CARDO) from Janthinobacterium sp. J3, reduced state (enzyme, UniProt Q84II6 1-384, looked up)
chain: MANVDEAILKRVKGWAPYVDAKLGFRNHWYPVMFSKEINEGEPKTLKLLGENLLVNRIDGKLYCLKDRCLHRGVQLSVKVECKTKSTITCWYHAWTYRWEDGVLCDILTNPTSAQIGRQKLKTYPVQEAKGCVFIYLGDGDPPPLARDTPPNFLDDDMEILGKNQIIKSNWRLAVENGFDPSHIYIHKDSILVKDNDLALPLGFAPGGDRKQQTRVVDDDVVGRKGVYDLIGEHGVPVFEGTIGGEVVREGAYGEKIVANDISIWLPGVLKVNPFPNPDMMQFEWYVPIDENTHYYFQTLGKPCANDEERKKYEQEFESKWKPMALEGFNNDDIWAREAMVDFYADDKGWVNEILFESDEAIVAWRKLASEHNQGIQTQAHVSG
notes: terminal oxygenase component (Oxy) of carbazole 1,9a-dioxygenase, Janthinobacterium sp; J3; histidine-tagged; Holds a Rieske-type [2Fe-2S] cluster (reduced in this experiment) and a nonhaem iron centre; Trimer in the crystal; Construct as in earlier work (Ashikawa et al., 2005; Matsuzawa et al., 2013); also called Oxyred; reduced Oxy; source: E. coli BL21(DE3), purified (metal-chelation …)
B2: ferredoxin (Fd) component of carbazole 1,9a-dioxygenase (CARDO) from Pseudomonas resinovorans CA10, oxidized state (natural protein)
chain: MNQIWLKVCAASDMQPGTIRRVNRVGAAPLAVYRVGDQFYATEDTCTHGIASLSEGTLDGDVIECPFHGGAFNVCTGMPASSPCTVPLGVFEVEVKEGEVYVAGEKK
notes: ferredoxin component (Fd) of carbazole 1,9a-dioxygenase, Pseudomonas resinovorans CA10; histidine-tagged; Holds a Rieske-type [2Fe-2S] cluster (oxidized in this experiment); Called a monomer in the crystal; Construct as in earlier work (Ashikawa et al., 2005; Matsuzawa et al., 2013); also called Fdox; oxidized Fd; source: E. coli BL21(DE3), purified (metal-chelation chromatography, gel filtration)

Columns and labels:
[1] = target: the molecule itself; experiment: crystal structure; Oxyred and Fdox mixed in a 1:3 molar ratio with 10% glycerol, anaerobic, hanging-drop vapour diffusion at 293 K, 0.1 M sodium cacodylate pH 5.7, 14% (w/v) PEG 3350; dissolved crystals checked by SDS-PAGE and anti-His Western blot; data to 2.25 A, molecular replacement with PDB 2de5 (preliminary)
[2] = target: B1; experiment: as above; settings: both partners purified

Row | stoichiometry N [2] | Binder | stoichiometry N [1]
1 | – | B1 | 3
2 | 2 molecules of the Fd monomer per one Oxy trimer | B2 | –
